Measurements: paper PMC8835902

Tests used:
[1] = molecular target: LDgp5 (LoopDel);thioredoxin (trx) D5A;E7A;beta-hairpin;loop;replaced;by;SGSG (bacteriophage T7;Escherichia coli?) (UniProt P00581+P0AA25); test: EMSA; conditions: 20 mM Hepes pH 7.5, 1 mM EDTA, 100 mM KCl, 0.1 mM bME, 5% glycerol, 0.10 mg/mL BSA, 10 nM DNA, 25 C (30 min; 15 min + 15 min for supershift)
[2] = molecular target: WTgp5-trx complex (T7 gp5 DNA polymerase D5A, E7A with thioredoxin) (bacteriophage T7 | not stated) (UniProt P00581)

| Substance | Kd [1] [nM] | other results |
| --- | --- | --- |
| GGATTATTTACATTGGCAGATTCACC / TTATTAGTTATGATATTCATGTATAGTTATATGGTGAATCTGCCAATGTAAATAATCC / TATTCATGTATAGTTATGTAGAGACCGAGATCCGCGCTGCCAGTCGGCAGAGCC [Fork template 0gap] | 130 |  |
| GGATTATTTACATTGGCAGATTCACC / TTATTAGTTATGATATTCATGTATAGTTATATGGTGAATCTGCCAATGTAAATAATCC / TATTCATGTATAGTTATGTAGAGTCCGAGATCCGCGCTGCCAGTCGGCAGAGCC [Fork template 1gap] | 130 |  |
| GGATTATTTACATTGGCAGATTCACC / TTATTAGTTATGATATTCATGTATAGTTATATGGTGAATCTGCCAATGTAAATAATCC / TATTCATGTATAGTTATGTAGAGTTCCGAGATCCGCGCTGCCAGTCGGCAGAGCC [Fork template 2gap] | 130 |  |
| GGATTATTTACATTGGCAGATTCACC / TTATTAGTTATGATATTCATGTATAGTTATATGGTGAATCTGCCAATGTAAATAATCC [Linear template-58nt] |  | binding signal (fold lower affinity than WTgp5) [1]: 2 |
| T7 gp4 E343Q with truncated C-terminal tails (from UniProt P03692 1-566) (enzyme) |  | fold decrease in 2-aminopurine fluorescence of fork DNA (local base-pair unwinding), 2-AP at N+3, against the EQgp4-WTgp5 complex [2]: 2 fold |
